First the molecules themselves.
B1: Hairpin Ribozyme (parent)
chain: GUCCUCUUUCACGUGCGCGUGAAAGAGAGAAGUGAACCAGAGAAACACACGUUGUGGUAUAUUACCUGGUA

For 167 variants, self-cleavage results are on record in the RNAGym collection of RNA variant scans (doi:10.7554/elife.80360).

In this data set the parent is B1. The experiment in a line: self-cleavage, relative activity (ratio to wild type); higher = more cleavage; co-transcriptional.
As for A35U C37G, the self-cleavage was found to be 0.194.

On to U33G U70A, for which the self-cleavage turned out to be 0.121.

On to U33G A59G, for which the self-cleavage was found to be 0.204.

For U33G A59U, the self-cleavage amounted to 0.

With A36G C37G, the self-cleavage is 0.287.

As to G34A U52C, the self-cleavage stood at 0.857.

For the variant A36C C66U, the self-cleavage stood at 0.264.

With A35U A47G, the self-cleavage came out at 0.137.

As to A35U A47U, the self-cleavage is 0.185.

Consider A35G A59G, for which the self-cleavage came to 0.266.

As to A35G A59U, the self-cleavage worked out at 0.229.

Turning to U33G U63C, the self-cleavage turned out to be 0.217.

With U33G U63A, the self-cleavage came to 0.126.

G34U G68C: the self-cleavage was determined as 0.686.

Turning to G34U G68U, the self-cleavage worked out at 0.95.

On to G34C A45U, for which the self-cleavage came to 0.33.

Turning to A36G U52A, the self-cleavage is 0.791.

Take A35G U67C: the self-cleavage was 0.0903.

In the case of A35G U67G, the self-cleavage was found to be 0.206.

As to A35G U67A, the self-cleavage was determined as 0.201.

Regarding A35G G54U, the self-cleavage is 0.513.

As for A35U A45U, the self-cleavage is 0.151.

Take U33G A36C: the self-cleavage stood at 0.0918.

Consider A35G G69A, for which the self-cleavage came out at 0.204.

As for A35G G69U, the self-cleavage was determined as 0.285.

Consider A35G G69C, for which the self-cleavage is 0.204.

As for G34A U70A, the self-cleavage amounted to 1.14.

Take A36C A64C: the self-cleavage was determined as 0.11.

Regarding A36G A64C, the self-cleavage was 0.17.

A35U C50A: the self-cleavage stood at 0.295.

As for A35U C50G, the self-cleavage was found to be 0.369.

With A35C A36C, the self-cleavage was found to be 0.517.

In the case of U33G C65A, the self-cleavage was found to be 0.189.

Take U33G C65U: the self-cleavage came to 0.0212.

Turning to G34A U58C, the self-cleavage was 1.11.

Consider G34A A44C, for which the self-cleavage came to 0.223.

G34A A44G: the self-cleavage was found to be 0.259.

With A36G C48G, the self-cleavage came out at 0.259.

Turning to U33G A44G, the self-cleavage is 0.0996.

Consider U33G A44C, for which the self-cleavage is 0.0874.

U33G A44U: the self-cleavage was 0.23.

With A36U A44C, the self-cleavage was found to be 0.112.

In the case of A36U A44G, the self-cleavage is 0.183.

Turning to G34U A47G, the self-cleavage was determined as 0.444.

Consider G34U A47U, for which the self-cleavage amounted to 0.876.

U33G C66G: the self-cleavage was 0.0993.

In the case of U33G C66A, the self-cleavage was found to be 0.0596.

For G34U U60A, the self-cleavage was 1.52.

As for A36G G56A, the self-cleavage came to 0.146.

With A36G G56C, the self-cleavage was 0.0421.

For the variant G34U G40C, the self-cleavage worked out at 0.232.

Take G34U G40A: the self-cleavage came to 0.751.

As to G34A A64C, the self-cleavage stood at 0.349.

As to G34C U58C, the self-cleavage worked out at 1.4.

Turning to A35G A44C, the self-cleavage came to 0.211.

With A35G A44U, the self-cleavage was 0.14.

Consider A35G A44G, for which the self-cleavage came to 0.177.

Take G34A A71G: the self-cleavage worked out at 1.41.

For the variant U33C U58G, the self-cleavage stood at 0.0694.

For the variant A36G U58C, the self-cleavage worked out at 1.

As for A36G U58A, the self-cleavage was found to be 0.836.

A35U C48A: the self-cleavage was 0.186.

For the variant A35U C48G, the self-cleavage amounted to 0.215.

For the variant A35U C48U, the self-cleavage stood at 0.162.

A35G A41U: the self-cleavage turned out to be 1.28.

For A35G A41G, the self-cleavage came to 0.814.

Regarding A36G G42A, the self-cleavage was 0.23.

A36C U53C: the self-cleavage amounted to 0.953.

Turning to G34A C50A, the self-cleavage was found to be 0.312.

On to A36C U62G, for which the self-cleavage was found to be 0.0267.

In the case of A36C U62C, the self-cleavage was found to be 0.192.

As to U33C U60C, the self-cleavage was 0.128.

With A36U A43C, the self-cleavage was determined as 0.0574.

As for A36U A43G, the self-cleavage was determined as 0.138.

Consider A36U A43U, for which the self-cleavage is 0.0848.

Take A36G A44C: the self-cleavage came out at 0.0853.

For A36G A44G, the self-cleavage was 0.276.

Take A35G G68A: the self-cleavage was 0.309.

With A35C G42C, the self-cleavage is 0.505.

Turning to G34A A41G, the self-cleavage is 1.3.

With U33G U52G, the self-cleavage is 0.0362.

On to G34U U67G, for which the self-cleavage amounted to 0.658.

As for A36C A59G, the self-cleavage was determined as 0.203.

In the case of G34U A39C, the self-cleavage stood at 0.857.

As for A35U U63G, the self-cleavage is 0.147.

Turning to A35U U63A, the self-cleavage came out at 0.227.

Regarding A36C G57C, the self-cleavage turned out to be 0.17.

Turning to A36C G57A, the self-cleavage came to 0.125.

A35G U52C: the self-cleavage was found to be 1.29.

In the case of G34A A61C, the self-cleavage amounted to 0.336.

For the variant G34C A41U, the self-cleavage turned out to be 1.42.

Turning to U33G C48A, the self-cleavage came out at 0.158.

Turning to G34A U60C, the self-cleavage was determined as 1.5.

Turning to G34A U60A, the self-cleavage was found to be 1.13.

Regarding G34A G54U, the self-cleavage was 0.719.

Regarding A35C G51A, the self-cleavage was 1.26.

With A35C U63C, the self-cleavage was 0.0565.

On to A35U A59G, for which the self-cleavage was found to be 0.18.

As to U33C U70A, the self-cleavage came to 0.0822.

In the case of A35G C50U, the self-cleavage was determined as 0.355.

For the variant G34A A43C, the self-cleavage was 0.229.

As for A36C A43G, the self-cleavage is 0.131.

For A36C A61G, the self-cleavage is 0.148.

In the case of G34A G40C, the self-cleavage came out at 0.174.

For A35G C37U, the self-cleavage is 0.302.

Take G34C A44C: the self-cleavage worked out at 0.116.

G34C U52C: the self-cleavage was 1.6.

Take A35U U60C: the self-cleavage amounted to 0.559.

Regarding A36C U52C, the self-cleavage was determined as 0.556.

Turning to A36C A49G, the self-cleavage came to 0.28.

For the variant A36C A49C, the self-cleavage was 0.144.

With A35U G42C, the self-cleavage amounted to 0.246.

On to A35U G42A, for which the self-cleavage turned out to be 0.181.

As for A35C U67A, the self-cleavage is 0.301.

Take A36G A41G: the self-cleavage turned out to be 0.536.

Take G34C A43C: the self-cleavage came out at 0.144.

In the case of G34C A43U, the self-cleavage stood at 0.233.

On to U33C U62C, for which the self-cleavage was 0.0427.

As for U33C U62G, the self-cleavage was 0.0931.

Take U33C U62A: the self-cleavage came out at 0.278.

With A36C G69U, the self-cleavage stood at 0.227.

Consider A36C G69A, for which the self-cleavage was determined as 0.24.

Take A35U U58A: the self-cleavage turned out to be 0.464.

As to G34U G51A, the self-cleavage is 1.57.

Turning to G34C C38A, the self-cleavage was determined as 0.563.

Consider G34C C38U, for which the self-cleavage was 1.28.

For G34C C38G, the self-cleavage is 0.683.

With A35G U55A, the self-cleavage was 0.292.

For G34A A36C, the self-cleavage worked out at 0.956.

With A35C G69A, the self-cleavage was found to be 0.378.

A35C G69C: the self-cleavage is 0.126.

Take A35C C37U: the self-cleavage stood at 0.486.

Consider A35C C37A, for which the self-cleavage was 0.269.

With G34C A36G, the self-cleavage was found to be 1.24.

On to A35U C65A, for which the self-cleavage is 0.625.

On to U33C U63G, for which the self-cleavage was determined as 0.0654.

In the case of U33G A49U, the self-cleavage is 0.218.

As for G34C A47G, the self-cleavage was determined as 0.448.

As for G34C A47U, the self-cleavage worked out at 0.465.

As to G34A G42C, the self-cleavage was determined as 0.516.

For G34A G42A, the self-cleavage worked out at 0.356.

A35C A47G: the self-cleavage turned out to be 0.195.

For the variant A35C A47U, the self-cleavage is 0.179.

As for G34U C37A, the self-cleavage came out at 0.946.

Regarding A35G A43U, the self-cleavage is 0.223.

For A35G A43G, the self-cleavage worked out at 0.082.

G34U A36C: the self-cleavage was 1.02.

Regarding G34U A36G, the self-cleavage worked out at 0.909.

In the case of A36G A49C, the self-cleavage was 0.0302.

Take G34C A39U: the self-cleavage is 1.02.

As to G34C A39G, the self-cleavage came out at 1.03.

For the variant A35C C50A, the self-cleavage is 0.364.

Consider G34U C50A, for which the self-cleavage worked out at 1.13.

In the case of U33G A47U, the self-cleavage stood at 0.105.

With U33G A47G, the self-cleavage stood at 0.0744.

Regarding A35U A49C, the self-cleavage amounted to 0.17.

As for A35G C66G, the self-cleavage was found to be 0.127.

As for A35G C66A, the self-cleavage turned out to be 0.156.

On to G34C G68U, for which the self-cleavage turned out to be 0.658.

On to A35G G56C, for which the self-cleavage came to 0.0996.

Take G34C U70G: the self-cleavage amounted to 1.23.

With G34C U70A, the self-cleavage is 1.12.

In the case of A36G A47U, the self-cleavage came out at 0.127.

As for A36G A47C, the self-cleavage amounted to 0.372.

For A35G A36G, the self-cleavage is 0.749.

For the variant A36G C50U, the self-cleavage was determined as 0.407.

In the case of A36G C50G, the self-cleavage stood at 0.382.
